Laboratory results published in the Immune Epitope Database (IEDB).
pIC50, pKd: −log10 of the molar value.

Tests used:
HLA-A*68:02 = experiment: IEDB peptide-MHC binding, purified MHC/competitive/radioactivity; filed as Kd, often an IC50 or EC50 that approximates it; ≥ and ≤ were set here for values at or beyond the usual limits of such assays; details: source organism: Homo sapiens
HLA-A*24:02 [1] = experiment: IEDB peptide-MHC binding, purified MHC/competitive/fluorescence; ≥ and ≤ were set here for values at or beyond the usual limits of such assays
HLA-A*01:01 = experiment: IEDB peptide-MHC binding, purified MHC/competitive/radioactivity; filed as Kd, often an IC50 or EC50 that approximates it; ≥ and ≤ were set here for values at or beyond the usual limits of such assays
HLA-A*23:01 = experiment: as above
HLA-A*24:02 [2] = experiment: as above
HLA-A*26:01 = experiment: as above
HLA-A*29:02 = experiment: as above
HLA-A*30:02 = experiment: as above
HLA-B*44:02 = experiment: as above
HLA-B*44:03 = experiment: as above
HLA-B*07:02 = experiment: as above
HLA-B*15:01 = experiment: as above
HLA-B*40:01 = experiment: as above
HLA-B*51:01 = experiment: as above
HLA-A*02:01 = experiment: IEDB peptide-MHC binding, purified MHC/competitive/fluorescence; ≥ and ≤ were set here for values at or beyond the usual limits of such assays; details: source organism: Vaccinia virus
HLA-A*03:01 = experiment: IEDB peptide-MHC binding, purified MHC/competitive/radioactivity; filed as Kd, often an IC50 or EC50 that approximates it; ≥ and ≤ were set here for values at or beyond the usual limits of such assays; details: source organism: Triticum aestivum
HLA-A*11:01 = experiment: as above; details: source organism: Triticum aestivum
HLA-A*31:01 = experiment: as above; details: source organism: Triticum aestivum
HLA-A*33:01 = experiment: as above; details: source organism: Triticum aestivum
HLA-A*68:01 = experiment: as above; details: source organism: Triticum aestivum
[3] = source organism: Sudan ebolavirus
[4] = source organism: SARS coronavirus Tor2
[5] = source organism: Mammarenavirus brazilense
[6] = source organism: Dengue virus 3 Martinique/1243/1999
[7] = source organism: Mammarenavirus juninense
[8] = source organism: Dengue virus 1 Brazil/97-11/1997
[9] = source organism: Dengue virus 2 Jamaica/1409/1983
[10] = source organism: Dengue virus 4 Philippines/H241/1956
[11] = source organism: Dengue virus 1 Singapore/S275/1990
[12] = source organism: Zaire ebolavirus
[13] = source organism: Vaccinia virus
[14] = source organism: Mammarenavirus lassaense
[15] = source organism: Triticum aestivum
[16] = source organism: Lymphocytic choriomeningitis virus (strain Armstrong)
[17] = source organism: Mammarenavirus whitewaterense

NLEKQIATL
pKd (HLA-A*68:02): ≤ 4.58

NRKAIDFLL
pIC50 (HLA-A*24:02 [1]; [3]): ≤ 4.14

NYMPYVFTLL
pKd (HLA-A*01:01; [4]): ≤ 4.39
pKd (HLA-A*23:01; [4]): 8.95
pKd (HLA-A*24:02 [2]; [4]): 8.99
pKd (HLA-A*26:01; [4]): ≤ 4.16
pKd (HLA-A*29:02; [4]): 6.89
pKd (HLA-A*30:02; [4]): 5.59

PKAQREIFS
pIC50 (HLA-A*24:02 [1]; source organism: Variola virus): 4.52

PYLKATKQI
pKd (HLA-A*23:01; [5]): 6.88
pKd (HLA-A*24:02 [2]; [5]): 6.25
pKd (HLA-A*29:02; [5]): ≤ 4.10

QTWMSAEGAW
pKd (HLA-B*44:02; [6]): 4.92

QWFFDLPLPW
pKd (HLA-A*23:01; [6]): 7.83
pKd (HLA-A*24:02 [2]; [6]): 7.13
pKd (HLA-B*44:03; [6]): 5.58

QWSLFFFVY
pKd (HLA-A*01:01; [4]): 5.09
pKd (HLA-A*23:01; [4]): ≤ 4.11
pKd (HLA-A*24:02 [2]; [4]): ≤ 4.35
pKd (HLA-A*26:01; [4]): 4.75
pKd (HLA-A*29:02; [4]): 7.87
pKd (HLA-A*30:02; [4]): 5.86

RCWLIKNNSY
pKd (HLA-A*01:01; [7]): ≤ 4.51
pKd (HLA-A*23:01; [7]): ≤ 4.15
pKd (HLA-A*24:02 [2]; [7]): ≤ 4.15
pKd (HLA-A*26:01; [7]): ≤ 4.16
pKd (HLA-A*29:02; [7]): ≤ 4.54
pKd (HLA-A*30:02; [7]): 8.00

RPGYFTQTA
pKd (HLA-B*07:02; [8]): 8.32

RQMEGEGVL
pKd (HLA-B*15:01; [6]): 7.73
pKd (HLA-B*40:01; [6]): 7.36

RSNAALGAIF
pKd (HLA-A*30:02; [9]): 5.47
pKd (HLA-B*07:02; [9]): 6.74
pKd (HLA-B*15:01; [9]): 7.39

SEAVNDSRF
pKd (HLA-B*44:02; [10]): 7.75
pKd (HLA-B*44:03; [10]): 7.18

SEMIIPKIYG
pKd (HLA-B*44:02; [11]): 8.02
pKd (HLA-B*44:03; [11]): 7.73

SPMLYQLLE
pIC50 (HLA-A*24:02 [1]; source organism: Vaccinia virus Copenhagen): 4.19

SPSVEVKLPD
pKd (HLA-B*07:02; [10]): 6.69

SYSLFDMSKF
pKd (HLA-A*01:01; [4]): ≤ 4.60
pKd (HLA-A*23:01; [4]): 7.30
pKd (HLA-A*26:01; [4]): 5.21
pKd (HLA-A*29:02; [4]): 6.17
pKd (HLA-A*30:02; [4]): 6.11

SYYATSYLE
pIC50 (HLA-A*24:02 [1]; [3]): 5.36

TEMGRLPTF
pKd (HLA-B*44:02; [9]): 8.00
pKd (HLA-B*44:03; [9]): 7.62

TFSIPLGVI
pIC50 (HLA-A*24:02 [1]; [12]): 7.07

TKKNLTRKI
pIC50 (HLA-A*24:02 [1]; [12]): ≤ 3.81

TPEAKNSTFL
pKd (HLA-B*07:02; [10]): 5.86

TPEGEVGAIA
pKd (HLA-B*07:02; [8]): 4.83

TPKGTVMDII
pKd (HLA-B*07:02; source organism: Dengue virus 3 Singapore/8120/1995): 6.22

TPQASTTEAI
pKd (HLA-B*07:02; [6]): 7.34
pKd (HLA-B*51:01; [6]): ≤ 4.64

TRAADEPPL
pIC50 (HLA-A*02:01): ≤ 2.85
pIC50 (HLA-A*24:02 [1]; [13]): ≤ 3.77

VEDEEFWKL
pKd (HLA-B*40:01; source organism: Dengue virus 3 Sri Lanka/1266/2000): 7.74

VERAVLDDGI
pKd (HLA-B*40:01; [8]): 5.77

VPFCSHHFHQ
pKd (HLA-B*07:02; [8]): ≤ 4.68
pKd (HLA-B*51:01; [8]): ≤ 4.16

VPVHLCNLI
pKd (HLA-A*01:01; [14]): ≤ 4.11
pKd (HLA-A*23:01; [14]): 5.50
pKd (HLA-A*24:02 [2]; [14]): 5.24
pKd (HLA-A*26:01; [14]): ≤ 4.11
pKd (HLA-A*29:02; [14]): ≤ 4.10
pKd (HLA-A*30:02; [14]): ≤ 4.32

VVLQQHSIAY
pKd (HLA-A*01:01; [15]): ≤ 4.15
pKd (HLA-A*03:01): 5.63
pKd (HLA-A*11:01): 5.79
pKd (HLA-A*23:01; [15]): ≤ 4.59
pKd (HLA-A*24:02 [2]; [15]): ≤ 4.40
pKd (HLA-A*26:01; [15]): ≤ 4.16
pKd (HLA-A*29:02; [15]): 5.98
pKd (HLA-A*30:02; [15]): 5.27
pKd (HLA-A*31:01): ≤ 4.15
pKd (HLA-A*33:01): ≤ 4.15
pKd (HLA-A*68:01): ≤ 4.60

VYFESFVREF
pKd (HLA-A*23:01; [16]): 8.05
pKd (HLA-A*24:02 [2]; [16]): 7.22
pKd (HLA-A*29:02; [16]): 6.74

WEGSPGKFW
pKd (HLA-B*44:02; [8]): 7.61
pKd (HLA-B*44:03; [8]): 7.27

WYMWLGARFL
pKd (HLA-A*23:01; [9]): 7.31
pKd (HLA-A*24:02 [2]; [9]): 8.20

YCNYSKFWY
pKd (HLA-A*01:01; [16]): ≤ 4.67
pKd (HLA-A*23:01; [16]): 4.84
pKd (HLA-A*24:02 [2]; [16]): ≤ 4.63
pKd (HLA-A*26:01; [16]): ≤ 4.11
pKd (HLA-A*29:02; [16]): 5.99
pKd (HLA-A*30:02; [16]): 5.89

YENLKYSVI
pKd (HLA-B*44:02; [8]): 7.04

YFPREGVFVF
pKd (HLA-A*01:01; [4]): ≤ 4.15
pKd (HLA-A*23:01; [4]): 8.24
pKd (HLA-A*24:02 [2]; [4]): 8.13
pKd (HLA-A*26:01; [4]): 4.76
pKd (HLA-A*29:02; [4]): 8.14
pKd (HLA-A*30:02; [4]): ≤ 4.10

YLLFGIKCI
pIC50 (HLA-A*24:02 [1]; [13]): 5.15

YPALMPLY
pKd (HLA-B*07:02; source organism: Hepatitis B virus): ≤ 5.00

YSQIGAGVY
pKd (HLA-A*01:01; [9]): 7.20
pKd (HLA-A*30:02; [9]): 8.69
pKd (HLA-B*15:01; [9]): 7.81

YYGLVTEQF
pKd (HLA-A*23:01; [17]): 8.83
pKd (HLA-A*24:02 [2]; [17]): 8.49
pKd (HLA-A*29:02; [17]): 7.02
